Values belong to the molecule of their own block, whether it stands above or below them.
Biological target: mouse alpha (2) macroglobulin receptor (mouse, UniProt Q91ZX7 20-4545)
Assay: cell-based or functional assay

Chain of mouse alpha (2) macroglobulin receptor (Q91ZX7 other isoform, or with tags, fused parts or gaps limits assumed): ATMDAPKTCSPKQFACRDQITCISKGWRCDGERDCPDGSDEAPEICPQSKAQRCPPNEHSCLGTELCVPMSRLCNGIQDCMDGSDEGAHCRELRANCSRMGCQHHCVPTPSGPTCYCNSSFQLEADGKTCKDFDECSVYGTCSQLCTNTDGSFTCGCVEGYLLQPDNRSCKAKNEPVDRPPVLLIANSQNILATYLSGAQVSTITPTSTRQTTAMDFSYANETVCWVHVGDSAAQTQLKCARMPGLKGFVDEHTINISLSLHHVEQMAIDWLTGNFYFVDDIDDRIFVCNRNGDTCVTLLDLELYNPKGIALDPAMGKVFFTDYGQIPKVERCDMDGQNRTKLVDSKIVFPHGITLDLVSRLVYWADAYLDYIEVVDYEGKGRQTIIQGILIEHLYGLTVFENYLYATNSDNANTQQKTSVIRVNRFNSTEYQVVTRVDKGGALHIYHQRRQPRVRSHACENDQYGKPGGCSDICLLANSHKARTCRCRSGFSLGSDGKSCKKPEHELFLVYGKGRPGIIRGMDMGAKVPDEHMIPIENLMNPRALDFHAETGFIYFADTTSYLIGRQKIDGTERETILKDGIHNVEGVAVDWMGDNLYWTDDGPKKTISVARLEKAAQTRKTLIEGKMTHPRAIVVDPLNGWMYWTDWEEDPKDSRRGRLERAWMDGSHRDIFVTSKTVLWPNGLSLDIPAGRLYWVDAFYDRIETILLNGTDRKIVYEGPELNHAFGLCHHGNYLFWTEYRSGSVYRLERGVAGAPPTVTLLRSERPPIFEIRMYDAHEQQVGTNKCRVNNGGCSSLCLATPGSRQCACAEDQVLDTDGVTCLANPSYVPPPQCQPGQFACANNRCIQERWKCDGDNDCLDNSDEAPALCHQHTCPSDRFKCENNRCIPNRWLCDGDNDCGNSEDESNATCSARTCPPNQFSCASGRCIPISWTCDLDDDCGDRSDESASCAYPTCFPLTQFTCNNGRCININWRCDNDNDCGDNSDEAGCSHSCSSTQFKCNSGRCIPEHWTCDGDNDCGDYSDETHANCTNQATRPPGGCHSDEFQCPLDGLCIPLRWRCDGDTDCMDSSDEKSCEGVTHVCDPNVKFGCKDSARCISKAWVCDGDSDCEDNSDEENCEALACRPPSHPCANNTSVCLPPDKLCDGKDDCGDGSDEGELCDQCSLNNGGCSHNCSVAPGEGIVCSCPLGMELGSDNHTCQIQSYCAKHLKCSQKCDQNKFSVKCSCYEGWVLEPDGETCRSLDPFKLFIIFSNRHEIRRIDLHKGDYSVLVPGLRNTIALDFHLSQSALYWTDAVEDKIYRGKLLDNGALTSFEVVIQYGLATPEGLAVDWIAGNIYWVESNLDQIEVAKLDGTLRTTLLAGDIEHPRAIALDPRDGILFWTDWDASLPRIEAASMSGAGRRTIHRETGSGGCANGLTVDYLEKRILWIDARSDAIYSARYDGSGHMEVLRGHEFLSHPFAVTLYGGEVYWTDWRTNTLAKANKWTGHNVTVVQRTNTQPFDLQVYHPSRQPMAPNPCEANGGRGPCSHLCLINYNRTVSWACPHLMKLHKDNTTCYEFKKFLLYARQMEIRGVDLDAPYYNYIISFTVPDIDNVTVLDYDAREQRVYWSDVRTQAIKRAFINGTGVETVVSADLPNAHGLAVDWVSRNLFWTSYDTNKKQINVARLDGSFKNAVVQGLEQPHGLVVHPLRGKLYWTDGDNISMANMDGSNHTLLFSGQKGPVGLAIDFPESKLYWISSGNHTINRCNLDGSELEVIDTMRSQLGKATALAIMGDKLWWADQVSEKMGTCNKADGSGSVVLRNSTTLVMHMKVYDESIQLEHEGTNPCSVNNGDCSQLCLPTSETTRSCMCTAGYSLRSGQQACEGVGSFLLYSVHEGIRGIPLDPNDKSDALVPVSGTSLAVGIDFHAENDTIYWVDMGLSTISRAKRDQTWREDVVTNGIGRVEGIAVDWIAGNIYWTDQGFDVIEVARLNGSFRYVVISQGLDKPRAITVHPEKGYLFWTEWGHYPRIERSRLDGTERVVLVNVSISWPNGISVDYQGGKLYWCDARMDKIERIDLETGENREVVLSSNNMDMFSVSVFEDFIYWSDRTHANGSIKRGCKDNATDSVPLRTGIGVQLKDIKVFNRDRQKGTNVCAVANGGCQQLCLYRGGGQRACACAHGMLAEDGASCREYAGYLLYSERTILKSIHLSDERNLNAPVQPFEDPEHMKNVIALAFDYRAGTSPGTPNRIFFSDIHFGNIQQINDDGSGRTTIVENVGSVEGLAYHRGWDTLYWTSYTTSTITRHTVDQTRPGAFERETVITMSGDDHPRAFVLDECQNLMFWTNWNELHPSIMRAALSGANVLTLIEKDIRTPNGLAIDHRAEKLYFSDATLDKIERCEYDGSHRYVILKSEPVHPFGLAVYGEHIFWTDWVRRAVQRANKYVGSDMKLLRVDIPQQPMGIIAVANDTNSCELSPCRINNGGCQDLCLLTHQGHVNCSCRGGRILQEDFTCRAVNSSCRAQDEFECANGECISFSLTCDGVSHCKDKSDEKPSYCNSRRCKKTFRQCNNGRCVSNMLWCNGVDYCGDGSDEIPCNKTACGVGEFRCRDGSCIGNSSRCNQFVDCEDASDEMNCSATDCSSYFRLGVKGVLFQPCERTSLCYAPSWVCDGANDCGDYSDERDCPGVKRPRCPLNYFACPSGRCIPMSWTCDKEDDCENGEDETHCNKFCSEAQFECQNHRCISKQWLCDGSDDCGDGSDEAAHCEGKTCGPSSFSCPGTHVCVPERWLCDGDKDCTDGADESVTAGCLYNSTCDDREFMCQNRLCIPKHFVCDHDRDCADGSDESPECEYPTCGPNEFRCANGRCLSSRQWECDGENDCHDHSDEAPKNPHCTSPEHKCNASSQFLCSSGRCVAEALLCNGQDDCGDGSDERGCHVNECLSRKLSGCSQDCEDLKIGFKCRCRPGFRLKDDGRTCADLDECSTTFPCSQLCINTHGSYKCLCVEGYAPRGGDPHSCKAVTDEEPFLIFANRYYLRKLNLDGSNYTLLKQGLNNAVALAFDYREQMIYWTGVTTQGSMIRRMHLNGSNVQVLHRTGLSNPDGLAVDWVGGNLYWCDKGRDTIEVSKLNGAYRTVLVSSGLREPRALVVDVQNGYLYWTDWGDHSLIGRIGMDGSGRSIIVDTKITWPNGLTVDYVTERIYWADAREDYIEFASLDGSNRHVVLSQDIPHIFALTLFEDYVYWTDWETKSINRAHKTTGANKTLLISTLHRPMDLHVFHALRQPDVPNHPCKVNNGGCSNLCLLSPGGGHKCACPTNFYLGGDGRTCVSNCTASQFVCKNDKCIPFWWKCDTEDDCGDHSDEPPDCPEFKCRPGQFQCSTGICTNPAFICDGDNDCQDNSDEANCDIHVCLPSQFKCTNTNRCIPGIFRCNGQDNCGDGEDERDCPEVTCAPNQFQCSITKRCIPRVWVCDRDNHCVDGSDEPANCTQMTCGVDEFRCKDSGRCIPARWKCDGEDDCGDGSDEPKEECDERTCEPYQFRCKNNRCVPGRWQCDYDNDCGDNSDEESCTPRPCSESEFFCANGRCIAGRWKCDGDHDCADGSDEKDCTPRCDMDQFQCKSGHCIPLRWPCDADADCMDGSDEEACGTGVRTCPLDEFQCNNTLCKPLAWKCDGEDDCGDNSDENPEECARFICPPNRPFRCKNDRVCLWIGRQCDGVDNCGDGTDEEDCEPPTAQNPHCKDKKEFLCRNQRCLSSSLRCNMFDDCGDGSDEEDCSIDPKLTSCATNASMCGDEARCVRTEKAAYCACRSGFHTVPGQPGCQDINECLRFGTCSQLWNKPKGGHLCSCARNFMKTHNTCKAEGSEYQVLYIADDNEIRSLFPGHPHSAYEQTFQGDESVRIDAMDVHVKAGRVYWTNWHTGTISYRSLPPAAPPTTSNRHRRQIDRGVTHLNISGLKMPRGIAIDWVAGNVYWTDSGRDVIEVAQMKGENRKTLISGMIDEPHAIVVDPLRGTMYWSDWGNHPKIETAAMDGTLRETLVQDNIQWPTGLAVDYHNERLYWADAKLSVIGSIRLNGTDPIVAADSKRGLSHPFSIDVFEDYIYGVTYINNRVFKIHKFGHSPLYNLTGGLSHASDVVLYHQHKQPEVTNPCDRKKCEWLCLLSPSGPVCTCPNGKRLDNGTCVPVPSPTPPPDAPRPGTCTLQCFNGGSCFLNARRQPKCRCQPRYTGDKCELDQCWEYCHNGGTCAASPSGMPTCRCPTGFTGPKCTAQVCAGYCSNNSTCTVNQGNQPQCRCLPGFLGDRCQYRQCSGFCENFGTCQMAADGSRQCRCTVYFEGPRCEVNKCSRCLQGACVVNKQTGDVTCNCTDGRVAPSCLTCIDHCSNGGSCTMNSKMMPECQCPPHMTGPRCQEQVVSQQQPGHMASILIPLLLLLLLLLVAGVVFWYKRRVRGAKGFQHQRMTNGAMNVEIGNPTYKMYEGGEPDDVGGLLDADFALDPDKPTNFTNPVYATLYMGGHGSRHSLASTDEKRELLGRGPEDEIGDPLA

molar excess of free HSP required to inhibit by 50% the re-presentation of gp96-chaperoned peptides at a gp96 concentration of 40 µg/ml (RAW264.7 cells) (fold molar excess): 13
Molecule: heat shock protein hsp70 (ligand)

molar excess of free HSP required to inhibit by 50% the re-presentation of gp96-chaperoned peptides at a gp96 concentration of 40 µg/ml (RAW264.7 cells) (fold molar excess): 2
Molecule: heat shock protein hsp90 (ligand)

molar excess of free HSP required to inhibit by 50% the re-presentation of gp96-chaperoned peptides at a gp96 concentration of 40 µg/ml (RAW264.7 cells): ~6 fold molar excess
B1: heat shock protein gp96 (ligand, UniProt P08113 22-802, looked up)
chain: DDEVDVDGTVEEDLGKSREGSRTDDEVVQREEEAIQLDGLNASQIRELREKSEKFAFQAEVNRMMKLIINSLYKNKEIFLRELISNASDALDKIRLISLTDENALAGNEELTVKIKCDKEKNLLHVTDTGVGMTREELVKNLGTIAKSGTSEFLNKMTEAQEDGQSTSELIGQFGVGFYSAFLVADKVIVTSKHNNDTQHIWESDSNEFSVIADPRGNTLGRGTTITLVLKEEASDYLELDTIKNLVRKYSQFINFPIYVWSSKTETVEEPLEEDEAAKEEKEESDDEAAVEEEEEEKKPKTKKVEKTVWDWELMNDIKPIWQRPSKEVEEDEYKAFYKSFSKESDDPMAYIHFTAEGEVTFKSILFVPTSAPRGLFDEYGSKKSDYIKLYVRRVFITDDFHDMMPKYLNFVKGVVDSDDLPLNVSRETLQQHKLLKVIRKKLVRKTLDMIKKIADEKYNDTFWKEFGTNIKLGVIEDHSNRTRLAKLLRFQSSHHSTDITSLDQYVERMKEKQDKIYFMAGSSRKEAESSPFVERLLKKGYEVIYLTEPVDEYCIQALPEFDGKRFQNVAKEGVKFDESEKTKESREATEKEFEPLLNWMKDKALKDKIEKAVVSQRLTESPCALVASQYGWSGNMERIMKAQAYQTGKDISTNYYASQKKTFEINPRHPLIRDMLRRIKEDEDDKTVMDLAVVLFETATLRSGYLLPDTKAYGDRIERMLRLSLNIDPEAQVEEEPEEEPEDTSEDAEDSEQDEGEEMDAGTEEEEEETEKESTEKDEL
